This is an account of results in article PMC9860310 (Proceedings of the National Academy of Sciences of the …, 2022).

The target of this test is GroEL (Escherichia coli, UniProt P0A6F5 1-548). In words: reconstitution of the complex.
Sequence of GroEL (P0A6F5 whole entry): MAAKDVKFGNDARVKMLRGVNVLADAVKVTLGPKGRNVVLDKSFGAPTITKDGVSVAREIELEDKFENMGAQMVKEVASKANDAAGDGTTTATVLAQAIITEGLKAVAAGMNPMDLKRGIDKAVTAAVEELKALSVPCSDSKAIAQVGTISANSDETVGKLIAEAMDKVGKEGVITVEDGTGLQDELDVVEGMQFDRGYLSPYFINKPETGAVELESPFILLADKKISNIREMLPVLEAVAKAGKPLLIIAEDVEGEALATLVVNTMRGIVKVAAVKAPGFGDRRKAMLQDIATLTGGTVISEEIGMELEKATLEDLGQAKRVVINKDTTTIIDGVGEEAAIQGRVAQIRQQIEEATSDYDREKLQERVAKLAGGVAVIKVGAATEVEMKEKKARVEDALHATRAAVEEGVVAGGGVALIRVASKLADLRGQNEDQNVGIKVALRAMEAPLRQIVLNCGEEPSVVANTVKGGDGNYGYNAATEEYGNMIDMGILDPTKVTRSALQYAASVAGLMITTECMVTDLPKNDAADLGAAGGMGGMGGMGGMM

B1: GroES (natural protein, Escherichia coli, UniProt P0A6F9 1-97, looked up)
chain: MNIRPLHDRVIVKRKEVETKSAGGIVLTGSAAAKSTRGEVLAVGNGRILENGEVKPLDVKVGDIVIFNDGYGVKSEKIDNEEVLIMSESDILAIVEA
Regarding B1, the binding result is recorded as “binds”.
